Source: PMC11711466, “Reconstitution of human DNA licensing and the structural and functional analysis of key intermediates” (Nature Communications, 2024)
Blank lines part the entries; values can stand above or below the binder they belong to.

What was measured:
[1] = target: T1, human MCM6 (human, UniProt Q14566 1-821); test: cryo-EM structure; hOCCM from a low-salt washed pre-RC reaction with ATPγS, eluted from the DNA beads with DNaseI; 6.09 Å; conditions: both partners purified
T1 construct: Subunit of m6; also called hMCM6; source: HEK293-F, co-expressed hMCM2-7; in lysate (co-purification) and purified as hMCM2-7 (Ni-NTA, StrepTrapXT)
T1 sequence (looked up): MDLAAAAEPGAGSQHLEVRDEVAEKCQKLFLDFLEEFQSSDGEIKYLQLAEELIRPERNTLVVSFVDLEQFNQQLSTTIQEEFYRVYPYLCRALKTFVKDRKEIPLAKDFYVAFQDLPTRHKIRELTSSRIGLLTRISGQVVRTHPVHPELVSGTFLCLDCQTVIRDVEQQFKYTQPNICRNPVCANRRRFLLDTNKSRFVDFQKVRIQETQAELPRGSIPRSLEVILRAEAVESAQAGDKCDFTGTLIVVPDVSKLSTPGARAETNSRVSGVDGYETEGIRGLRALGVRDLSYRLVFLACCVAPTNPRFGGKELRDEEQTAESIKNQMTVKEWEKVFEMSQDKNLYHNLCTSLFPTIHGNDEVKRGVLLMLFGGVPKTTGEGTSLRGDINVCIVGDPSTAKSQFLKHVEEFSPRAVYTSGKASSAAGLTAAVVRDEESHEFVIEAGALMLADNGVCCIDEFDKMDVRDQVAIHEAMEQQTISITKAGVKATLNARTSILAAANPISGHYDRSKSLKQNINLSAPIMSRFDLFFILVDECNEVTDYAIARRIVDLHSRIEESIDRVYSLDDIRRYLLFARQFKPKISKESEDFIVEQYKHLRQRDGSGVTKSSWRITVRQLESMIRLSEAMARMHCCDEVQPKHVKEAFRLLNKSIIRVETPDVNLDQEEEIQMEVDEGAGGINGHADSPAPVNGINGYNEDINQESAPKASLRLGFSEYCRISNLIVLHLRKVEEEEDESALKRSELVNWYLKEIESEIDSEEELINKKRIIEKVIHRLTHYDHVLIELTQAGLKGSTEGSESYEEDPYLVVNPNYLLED

[2] = target: T2, human ORC1 (human, UniProt Q13415 1-861); test: affinity co-purification; hORC1-5 co-overexpressed in G1-arrested budding yeast; StrepXT column on the N-terminal Strep tag of hORC1, then heparin column and glycerol gradient; conditions: partners not purified
T2 construct: human origin recognition complex subunit 1 (hORC1); Subunit of m1; also called hORC1; hORC1 N-tag; source: S. cerevisiae YC658, co-overexpressed with hORC2-5; in lysate (co-purification) and purified as hORC1-5 (StrepXT, heparin, glycerol gradient); not shown: Twin Strep-tag, N-terminal, kept
T2 sequence (looked up): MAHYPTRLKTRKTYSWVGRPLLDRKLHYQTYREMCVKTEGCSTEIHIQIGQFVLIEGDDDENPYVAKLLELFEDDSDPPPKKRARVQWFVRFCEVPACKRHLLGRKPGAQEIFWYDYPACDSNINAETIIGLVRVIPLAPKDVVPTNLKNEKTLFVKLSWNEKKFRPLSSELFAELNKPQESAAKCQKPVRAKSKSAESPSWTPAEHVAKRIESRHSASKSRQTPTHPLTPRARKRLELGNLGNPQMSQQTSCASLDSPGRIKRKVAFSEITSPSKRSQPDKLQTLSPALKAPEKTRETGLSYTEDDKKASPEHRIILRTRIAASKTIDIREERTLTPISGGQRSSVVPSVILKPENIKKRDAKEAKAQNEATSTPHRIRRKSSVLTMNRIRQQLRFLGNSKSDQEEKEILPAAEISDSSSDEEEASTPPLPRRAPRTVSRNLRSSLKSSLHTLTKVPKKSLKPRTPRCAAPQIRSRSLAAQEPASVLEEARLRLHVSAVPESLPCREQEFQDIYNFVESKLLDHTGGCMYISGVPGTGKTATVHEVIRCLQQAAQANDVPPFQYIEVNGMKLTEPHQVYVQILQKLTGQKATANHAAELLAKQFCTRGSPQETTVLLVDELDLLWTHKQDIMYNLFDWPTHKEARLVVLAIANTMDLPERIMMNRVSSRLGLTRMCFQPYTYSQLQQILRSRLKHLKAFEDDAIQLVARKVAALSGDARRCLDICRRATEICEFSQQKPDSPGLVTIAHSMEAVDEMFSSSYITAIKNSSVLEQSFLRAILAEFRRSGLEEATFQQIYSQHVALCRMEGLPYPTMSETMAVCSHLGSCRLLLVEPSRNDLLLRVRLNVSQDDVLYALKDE

[3] = target: T3, human MCM2 (human, UniProt P49736 1-904); test: cryo-EM structure; hOCCM from a low-salt washed pre-RC reaction with ATPγS, eluted from the DNA beads with DNaseI; 6.09 Å; conditions: both partners purified
T3 construct: human MCM2 (hMCM2); Subunit of m6; also called hMCM2; source: HEK293-F, co-expressed hMCM2-7; in lysate (co-purification) and purified as hMCM2-7 (Ni-NTA, StrepTrapXT); not shown: twin Strep, N-terminal, kept
T3 sequence (P49736 whole entry): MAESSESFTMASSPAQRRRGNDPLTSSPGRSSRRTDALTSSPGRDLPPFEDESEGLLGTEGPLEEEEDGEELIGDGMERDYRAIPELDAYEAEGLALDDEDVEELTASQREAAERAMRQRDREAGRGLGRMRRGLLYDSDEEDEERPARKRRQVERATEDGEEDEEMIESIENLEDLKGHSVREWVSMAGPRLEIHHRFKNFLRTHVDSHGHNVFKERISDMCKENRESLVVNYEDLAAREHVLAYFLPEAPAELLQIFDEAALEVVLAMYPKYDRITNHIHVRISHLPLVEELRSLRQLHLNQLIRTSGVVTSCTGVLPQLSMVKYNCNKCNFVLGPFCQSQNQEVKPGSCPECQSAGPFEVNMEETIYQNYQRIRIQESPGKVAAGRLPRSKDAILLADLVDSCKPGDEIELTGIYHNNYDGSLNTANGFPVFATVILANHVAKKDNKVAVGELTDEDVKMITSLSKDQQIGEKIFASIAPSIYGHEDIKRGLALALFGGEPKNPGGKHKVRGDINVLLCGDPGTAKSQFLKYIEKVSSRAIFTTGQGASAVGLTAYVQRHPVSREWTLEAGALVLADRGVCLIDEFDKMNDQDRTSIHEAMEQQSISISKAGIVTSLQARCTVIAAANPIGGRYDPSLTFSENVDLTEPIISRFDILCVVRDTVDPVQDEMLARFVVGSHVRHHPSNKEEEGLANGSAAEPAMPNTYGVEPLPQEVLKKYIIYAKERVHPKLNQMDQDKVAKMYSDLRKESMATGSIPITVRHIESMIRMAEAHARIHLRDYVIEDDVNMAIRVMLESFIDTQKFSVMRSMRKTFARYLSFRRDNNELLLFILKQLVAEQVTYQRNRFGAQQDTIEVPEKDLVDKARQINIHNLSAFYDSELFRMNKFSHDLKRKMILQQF

[4] = target: T4, human MCM3 (human, UniProt P25205 1-808); test: as above; conditions: both partners purified
T4 construct: Subunit of m6; also called hMCM3; source: HEK293-F, co-expressed hMCM2-7; in lysate (co-purification) and purified as hMCM2-7 (Ni-NTA, StrepTrapXT)
T4 sequence (looked up): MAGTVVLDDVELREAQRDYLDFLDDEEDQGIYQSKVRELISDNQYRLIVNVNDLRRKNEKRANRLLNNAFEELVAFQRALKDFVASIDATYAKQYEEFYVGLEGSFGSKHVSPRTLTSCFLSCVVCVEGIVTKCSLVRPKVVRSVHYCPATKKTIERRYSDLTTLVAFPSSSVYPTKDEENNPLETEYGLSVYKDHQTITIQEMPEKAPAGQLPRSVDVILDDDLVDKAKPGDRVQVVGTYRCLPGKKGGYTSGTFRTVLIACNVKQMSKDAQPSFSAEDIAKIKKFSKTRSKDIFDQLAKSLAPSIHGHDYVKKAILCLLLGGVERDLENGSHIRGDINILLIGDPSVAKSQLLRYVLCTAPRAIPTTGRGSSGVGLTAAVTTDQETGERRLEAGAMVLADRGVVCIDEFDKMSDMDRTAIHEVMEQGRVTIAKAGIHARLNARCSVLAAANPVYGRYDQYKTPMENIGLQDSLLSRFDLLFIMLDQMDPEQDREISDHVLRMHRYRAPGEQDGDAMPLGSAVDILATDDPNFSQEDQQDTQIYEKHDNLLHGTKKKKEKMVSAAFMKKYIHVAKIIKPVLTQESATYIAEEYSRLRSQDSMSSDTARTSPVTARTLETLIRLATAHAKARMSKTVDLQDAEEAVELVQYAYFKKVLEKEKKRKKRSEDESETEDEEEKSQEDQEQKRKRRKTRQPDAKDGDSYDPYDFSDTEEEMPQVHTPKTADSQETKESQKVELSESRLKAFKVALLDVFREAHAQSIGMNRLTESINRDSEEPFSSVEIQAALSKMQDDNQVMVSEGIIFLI

binding result [1]: binds
binding result [2]: binds
B1: human ORC5 (natural protein, UniProt O43913 1-435, looked up)
chain: MPHLENVVLCRESQVSILQSLFGERHHFSFPSIFIYGHTASGKTYVTQTLLKTLELPHVFVNCVECFTLRLLLEQILNKLNHLSSSEDGCSTEITCETFNDFVRLFKQVTTAENLKDQTVYIVLDKAEYLRDMEANLLPGFLRLQELADRNVTVLFLSEIVWEKFRPNTGCFEPFVLYFPDYSIGNLQKILSHDHPPEYSADFYAAYINILLGVFYTVCRDLKELRHLAVLNFPKYCEPVVKGEASERDTRKLWRNIEPHLKKAMQTVYLREISSSQWEKLQKDDTDPGQLKGLSAHTHVELPYYSKFILIAAYLASYNPARTDKRFFLKHHGKIKKTNFLKKHEKTSNHLLGPKPFPLDRLLAILYSIVDSRVAPTANIFSQITSLVTLQLLTLVGHDDQLDGPKYKCTVSLDFIRAIARTVNFDIIKYLYDFL
notes: human origin recognition complex subunit 5 (hORC5); Subunit of m1; also called hORC5; source: S. cerevisiae YC658, co-overexpressed with the other hORC1-5 subunits; in lysate (co-purification) and purified as hORC1-5

binding result [3]: binds
binding result [2]: binds
B2: human ORC3 (natural protein, UniProt Q9UBD5 1-711, looked up)
chain: MATSSMSKGCFVFKPNSKKRKISLPIEDYFNKGKNEPEDSKLRFETYQLIWQQMKSENERLQEELNKNLFDNLIEFLQKSHSGFQKNSRDLGGQIKLREIPTAALVLGVNVTDHDLTFGSLTEALQNNVTPYVVSLQAKDCPDMKHFLQKLISQLMDCCVDIKSKEEESVHVTQRKTHYSMDSLSSWYMTVTQKTDPKMLSKKRTTSSQWQSPPVVVILKDMESFATKVLQDFIIISSQHLHEFPLILIFGIATSPIIIHRLLPHAVSSLLCIELFQSLSCKEHLTTVLDKLLLTTQFPFKINEKVLQVLTNIFLYHDFSVQNFIKGLQLSLLEHFYSQPLSVLCCNLPEAKRRINFLSNNQCENIRRLPSFRRYVEKQASEKQVALLTNERYLKEETQLLLENLHVYHMNYFLVLRCLHKFTSSLPKYPLGRQIRELYCTCLEKNIWDSEEYASVLQLLRMLAKDELMTILEKCFKVFKSYCENHLGSTAKRIEEFLAQFQSLDETKEEEDASGSQPKGLQKTDLYHLQKSLLEMKELRRSKKQTKFEVLRENVVNFIDCLVREYLLPPETQPLHEVVYFSAAHALREHLNAAPRIALHTALNNPYYYLKNEALKSEEGCIPNIAPDICIAYKLHLECSRLINLVDWSEAFATVVTAAEKMDANSATSEEMNEIIHARFIRAVSELELLGFIKPTKQKTDHVARLTWGGC
notes: human origin recognition complex subunit 3 (hORC3); Subunit of m1; also called hORC3; source: S. cerevisiae YC658, co-overexpressed with the other hORC1-5 subunits; in lysate (co-purification) and purified as hORC1-5

binding result [4]: binds
binding result [2]: binds
B3: human ORC2 (natural protein, UniProt Q13416 1-577, looked up)
chain: MSKPELKEDKMLEVHFVGDDDVLNHILDREGGAKLKKERAQLLVNPKKIIKKPEYDLEEDDQEVLKDQNYVEIMGRDVQESLKNGSATGGGNKVYSFQNRKHSEKMAKLASELAKTPQKSVSFSLKNDPEITINVPQSSKGHSASDKVQPKNNDKSEFLSTAPRSLRKRLIVPRSHSDSESEYSASNSEDDEGVAQEHEEDTNAVIFSQKIQAQNRVVSAPVGKETPSKRMKRDKTSDLVEEYFEAHSSSKVLTSDRTLQKLKRAKLDQQTLRNLLSKVSPSFSAELKQLNQQYEKLFHKWMLQLHLGFNIVLYGLGSKRDLLERFRTTMLQDSIHVVINGFFPGISVKSVLNSITEEVLDHMGTFRSILDQLDWIVNKFKEDSSLELFLLIHNLDSQMLRGEKSQQIIGQLSSLHNIYLIASIDHLNAPLMWDHAKQSLFNWLWYETTTYSPYTEETSYENSLLVKQSGSLPLSSLTHVLRSLTPNARGIFRLLIKYQLDNQDNPSYIGLSFQDFYQQCREAFLVNSDLTLRAQLTEFRDHKLIRTKKGTDGVEYLLIPVDNGTLTDFLEKEEEEA
notes: human origin recognition complex subunit 2 (hORC2); Subunit of m1; also called hORC2; source: S. cerevisiae YC658, co-overexpressed with the other hORC1-5 subunits; in lysate (co-purification) and purified as hORC1-5

binding result [1]: binds
binding result [2]: binds
B4: human ORC4 (natural protein, UniProt O43929 1-436, looked up)
chain: MSSRKSKSNSLIHTECLSQVQRILRERFCRQSPHSNLFGVQVQYKHLSELLKRTALHGESNSVLIIGPRGSGKTMLINHALKELMEIEEVSENVLQVHLNGLLQINDKIALKEITRQLNLENVVGDKVFGSFAENLSFLLEALKKGDRTSSCPVIFILDEFDLFAHHKNQTLLYNLFDISQSAQTPIAVIGLTCRLDILELLEKRVKSRFSHRQIHLMNSFGFPQYVKIFKEQLSLPAEFPDKVFAEKWNENVQYLSEDRSVQEVLQKHFNISKNLRSLHMLLMLALNRVTASHPFMTAVDLMEASQLCSMDSKANIVHGLSVLEICLIIAMKHLNDIYEEEPFNFQMVYNEFQKFVQRKAHSVYNFEKPVVMKAFEHLQQLELIKPMERTSGNSQREYQLMKLLLDNTQIMNALQKYPNCPTDVRQWATSSLSWL
notes: human origin recognition complex subunit 4 (hORC4); Subunit of m1; also called hORC4; source: S. cerevisiae YC658, co-overexpressed with the other hORC1-5 subunits; in lysate (co-purification) and purified as hORC1-5
